One experiment deals with T1, Cdc42 (Homo sapiens, UniProt P60953, Q61L).
T1 construct: Cdc42 (pGEX-2T, 1–184, Q61L); GST (cleaved yes); made in house
Nature of the experiment: Direct-binding fluorescence polarization, Cdc42. The note with it: 20 nM FAM-labelled non-solubilized peptide; n ≥ 2; ± standard error from curve fitting; read-out: Kd Cdc42, FP (Table S1). The procedure: (§1) FP experiments were performed on a BMG Labtech Pherastar fluorimeter at 298 K with excitation at 485 nm and emission at 520 nm as described previously ([34]), using 20 nM FAM-labeled peptide. Plates were read after 30 min incubation at room temperature. Data were fitted to a single-site binding model using nonlinear regression analysis in GraphPad prism 8.4 to obtain Kd values and their standard errors.
In general terms: Polarisation of emitted light reports the rotation of a fluorescent probe.

Another experiment has as its target T2, RhoA·GMPPNP (Homo sapiens, UniProt P61586, F25N/Q63L).
T2 construct: RhoA (pGEX-2T, 1–186, F25N/Q63L); GST (cleaved yes); made in house
Put plainly: Direct-binding fluorescence polarization, RhoA. The note with it: 20 nM FAM-labelled non-solubilized peptide; n ≥ 2; ± standard error from curve fitting; read-out: Kd RhoA, FP (Table S1). The procedure:
as §1

For experiment [1], the target named is SP1 stapled peptide (RLIP76) 423-446 (Homo sapiens) (UniProt Q15311). The note with it: cited from earlier work.
For experiment [2] the target is unchanged. The note with it: cited from earlier work. The source holds these as a separate data set.
The target is the same in experiment [3]. The note with it: cited from earlier work. The source holds these as a separate data set.
The next experiment deals with RalA (Homo sapiens) (UniProt P11233). The note with it: cited from earlier work.
For the next experiment, the target named is RalB (Homo sapiens) (UniProt P11234). The note with it: cited from earlier work.
The target of the next experiment is R-Ras (Homo sapiens) (UniProt P10301). The note with it: cited from earlier work.
Experiment [4] concerns the target T3, RalA (residues 1–184, Q72L) (UniProt P11233 1-184, Q72L).
T3 construct: RalA small GTPase, residues 1-184, constitutively active Q72L; Loaded with [3H]GTP for SPA, with GMPPNP or GDP for fluorescence polarisation; also called RalA·GTP; [3H]-GTP RalA; source: expressed from pMAT10 as His6-MBP fusion, cleaved from its tag as described previously
T3 sequence (looked up): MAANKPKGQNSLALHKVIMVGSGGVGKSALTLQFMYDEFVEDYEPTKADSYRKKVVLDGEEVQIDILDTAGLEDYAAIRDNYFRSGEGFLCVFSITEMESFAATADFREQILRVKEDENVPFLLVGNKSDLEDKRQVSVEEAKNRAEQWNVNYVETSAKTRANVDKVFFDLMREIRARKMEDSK
Put plainly: scintillation proximity assay (competition); His-tagged wild-type RLIP76 RBD immobilised on SPA beads, fixed [3H]GTP·RalA (100 nM) or [3H]GTP·RalB (250 nM), competitor RBD or peptide titrated; pure competition model, apparent Kd (Ki). The note with it: both partners purified.

For experiment [5], the target named is T3, RalA (residues 1–184, Q72L). Nature of the experiment: scintillation proximity assay (competition); GST-tagged Sec5 RBD immobilised on SPA beads, fixed [3H]-GTP RalA, peptides or RLIP76 RBD titrated; pure competition model, apparent Kd (Ki). The note with it: both partners purified.
Experiment [6] has as its target T4, RalB (residues 1–185, Q72L) (UniProt P11234 1-185, Q72L).
T4 construct: Loaded with [3H]GTP for SPA, with GMPPNP for ITC, FP and crystallisation; also called RalB·GTP; source: expressed from pMAT10 as His6-MBP fusion, cleaved from its tag as described previously
T4 sequence (looked up): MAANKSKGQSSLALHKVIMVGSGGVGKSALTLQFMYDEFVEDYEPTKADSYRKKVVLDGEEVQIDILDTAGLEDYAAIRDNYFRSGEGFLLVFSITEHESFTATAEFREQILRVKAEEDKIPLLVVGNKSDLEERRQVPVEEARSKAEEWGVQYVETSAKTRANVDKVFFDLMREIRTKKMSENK
Nature of the experiment: fluorescence polarisation; 20 nM FAM-labeled peptide, varying concentrations of GMPPNP-bound small GTPases, 298 K, single-site model. The note with it: both partners purified.

Experiment [7] has as its target T3, RalA (residues 1–184, Q72L). The description is as above. The note with it: both partners purified.
Experiment [8] deals with RalA (residues 1–184, Q72L) (UniProt P11233). Put plainly: scintillation proximity assay (competition); His-tagged wild-type RLIP76 RBD immobilised on SPA beads, fixed [3H]GTP·RalA (100 nM) or [3H]GTP·RalB (250 nM), competitor RBD or peptide titrated; pure competition model, apparent Kd (Ki).
Experiment [9] concerns the target T4, RalB (residues 1–185, Q72L). Described as above. The note with it: both partners purified.

Here are results for ten molecules from publication PMC7949049 (The Journal of Biological Chemistry, 2020).

Where two headings read alike, the source gives them in different places. Positions of bridges follow the written chain, without caps; N, C: chain ends. Non-standard residues stand in square brackets, D forms with d. Residues, ends and D or L forms follow the SMILES beside them. No end group written: not given here. *: point of attachment. 5FAM = O=C1OC2(c3ccc(O)cc3Oc3cc(O)ccc32)c2ccc(C(=O)*)cc21; S5 = C=CCCC[C@](C)(N)C(=O)O

Chain of SP1 stapled peptide (RLIP76) 423-446 (Homo sapiens) (Q15311 423-446): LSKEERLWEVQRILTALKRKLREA
T1 sequence (P60953 1-184 Q61L, species assumed): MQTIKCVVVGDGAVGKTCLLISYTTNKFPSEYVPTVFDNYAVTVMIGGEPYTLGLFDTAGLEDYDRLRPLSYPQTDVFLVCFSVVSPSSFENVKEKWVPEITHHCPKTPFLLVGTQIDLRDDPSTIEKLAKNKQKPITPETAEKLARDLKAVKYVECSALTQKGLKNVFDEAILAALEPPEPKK
T2 sequence (P61586 1-186 F25N/Q63L): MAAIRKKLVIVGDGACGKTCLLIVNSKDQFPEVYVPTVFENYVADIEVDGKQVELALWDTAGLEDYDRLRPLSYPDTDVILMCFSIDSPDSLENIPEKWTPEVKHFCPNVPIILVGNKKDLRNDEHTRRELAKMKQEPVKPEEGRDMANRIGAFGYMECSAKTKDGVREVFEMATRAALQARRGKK
Chain of R-Ras (Homo sapiens) (P10301 1-215): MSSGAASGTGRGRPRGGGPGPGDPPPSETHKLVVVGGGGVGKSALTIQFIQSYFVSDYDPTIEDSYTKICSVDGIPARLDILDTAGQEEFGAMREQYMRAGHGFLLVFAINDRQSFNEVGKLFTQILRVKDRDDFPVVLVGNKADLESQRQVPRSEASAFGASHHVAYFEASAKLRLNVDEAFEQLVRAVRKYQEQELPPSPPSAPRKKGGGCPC

`CC[C@H](C)[C@H](NC(=O)[C@H](CCCNC(=N)N)NC(=O)[C@H](CC(C)C)NC(=O)[C@@H](NC(=O)[C@H](CCC(=O)O)NC(=O)[C@H](Cc1c[nH]c2ccccc12)NC(=O)[C@H](CC(C)C)NC(=O)[C@]1(C)CCCC=CCCC[C@](C)(NC(=O)[C@H](CC(C)C)NC(=O)c2ccc3c(c2)C(=O)OC32c3ccc(O)cc3Oc3cc(O)ccc32)C(=O)N[C@@H](CCCCN)C(=O)N[C@@H](CCC(=O)O)C(=O)N[C@@H](Cc2c[nH]cn2)C(=O)N1)C(C)C)C(=O)N[C@@H](CC(C)C)C(=O)N[C@H](C(=O)N[C@@H](C)C(=O)N[C@@H](CC(C)C)C(=O)N[C@@H](CCCNC(=N)N)C(=O)N[C@@H](CCCNC(=N)N)C(=O)N[C@@H](CCCCN)C(=O)N[C@@H](CC(C)C)C(=O)N[C@@H](CCCNC(=N)N)C(=O)N[C@@H](CCC(=O)O)C(=O)N[C@@H](C)C(N)=O)[C@@H](C)O` [HLR-SP1] (5FAM-L[S5]KEH[S5]LWEVLRILTALRRKLREA-NH2; staple 2-6): the figures for the Kd at Cdc42 and on RhoA·GMPPNP were 6.11 ± 1.67 µM and 12.5 ± 2.2 nM, respectively.

On to R-Ras (from UniProt P10301), for which, in experiment [1], the Kd is 30 µM.

As to RalA (from UniProt P11233), the Kd in experiment [2] was 14 µM.

RalB (from UniProt P11234): in [3], the Kd was 5 µM.

Regarding “SP1 stapled peptide 423-446 (from UniProt Q15311)”, the Kd is 14 µM with RalA (Homo sapiens), 5 µM with RalB (Homo sapiens) and 30 µM in the experiment with R-Ras (Homo sapiens).

B1: L-sol stapled peptide (peptide)
chain: L[S5]KEE[S5]LWEELRIKTAEKRKKREA-NH2
modifications: staple 2-6; N-terminus assumed
SMILES: CC[C@H](C)[C@H](NC(=O)[C@H](CCCNC(=N)N)NC(=O)[C@H](CC(C)C)NC(=O)[C@H](CCC(=O)O)NC(=O)[C@H](CCC(=O)O)NC(=O)[C@H](Cc1c[nH]c2ccccc12)NC(=O)[C@H](CC(C)C)NC(=O)[C@]1(C)CCCC=CCCC[C@](C)(NC(=O)[C@@H](N)CC(C)C)C(=O)N[C@@H](CCCCN)C(=O)N[C@@H](CCC(=O)O)C(=O)N[C@@H](CCC(=O)O)C(=O)N1)C(=O)N[C@@H](CCCCN)C(=O)N[C@H](C(=O)N[C@@H](C)C(=O)N[C@@H](CCC(=O)O)C(=O)N[C@@H](CCCCN)C(=O)N[C@@H](CCCNC(=N)N)C(=O)N[C@@H](CCCCN)C(=O)N[C@@H](CCCCN)C(=O)N[C@@H](CCCNC(=N)N)C(=O)N[C@@H](CCC(=O)O)C(=O)N[C@@H](C)C(N)=O)[C@@H](C)O
For B1, the Kd in experiment [4] worked out at 3.09 µM; in experiment [5], 1810 nM.

B2: FAM-labeled HLR-sol stapled peptide (peptide)
chain: L[S5]KEH[S5]LWEELRIKTAERRKKREA-NH2
modifications: staple 2-6; not fully specified (N-terminus); also: 5-carboxyfluorescein (FAM) label, site not given here
In the case of B2, the Kd in experiment [6] was 21.1 µM; in experiment [7], 16.6 µM.

B3: HLR-sol stapled peptide (peptide)
chain: L[S5]KEH[S5]LWEELRIKTAERRKKREA-NH2
modifications: staple 2-6; N-terminus assumed
SMILES: CC[C@H](C)[C@H](NC(=O)[C@H](CCCNC(=N)N)NC(=O)[C@H](CC(C)C)NC(=O)[C@H](CCC(=O)O)NC(=O)[C@H](CCC(=O)O)NC(=O)[C@H](Cc1c[nH]c2ccccc12)NC(=O)[C@H](CC(C)C)NC(=O)[C@]1(C)CCCC=CCCC[C@](C)(NC(=O)[C@@H](N)CC(C)C)C(=O)N[C@@H](CCCCN)C(=O)N[C@@H](CCC(=O)O)C(=O)N[C@@H](Cc2c[nH]cn2)C(=O)N1)C(=O)N[C@@H](CCCCN)C(=O)N[C@H](C(=O)N[C@@H](C)C(=O)N[C@@H](CCC(=O)O)C(=O)N[C@@H](CCCNC(=N)N)C(=O)N[C@@H](CCCNC(=N)N)C(=O)N[C@@H](CCCCN)C(=O)N[C@@H](CCCCN)C(=O)N[C@@H](CCCNC(=N)N)C(=O)N[C@@H](CCC(=O)O)C(=O)N[C@@H](C)C(N)=O)[C@@H](C)O
As to B3, the values for the Kd in experiment [4] and in [5] were 2.97 µM and 1740 nM, respectively.

B4: FAM-labeled L-sol stapled peptide (peptide)
chain: L[S5]KEE[S5]LWEELRIKTAEKRKKREA-NH2
modifications: staple 2-6; not fully specified (N-terminus); also: 5-carboxyfluorescein (FAM) label, site not given here
Regarding B4, the Kd in [6] was determined as 24.4 µM; in [7] it was 19.8 µM.

B5: RLIP76 RBD WDASQSR mutant (domain or fragment)
chain: ETQAGIKEEIRRQEFLLNSLHRDLQGGIKDLSKWDRAWEVSQILSALRRKLREA
notes: RLIP76 residues 423-446 (helix α2); Selected by CIS display; source: E. coli, recombinant; cleaved from its tag
As for B5, the Kd in experiment [8] was found to be 3.02 µM; in [9] it was 6.97 µM.
